Data reported in PMC11331505, “Binding Behavior of Human Hepatoma-Derived Growth Factor on SMYD1”.

Assays:
[1] = tested on: D. ficus RecA (D. ficus); assay: PIFE (Cy3 fluorescence enhancement); settings: 1 nM DNA; HDGF assays: 46 mM NaCl, 0.9 mM KCl, 3.3 mM Na2HPO4, 0.66 mM KH2PO4, pH 7.4; at least 1 h on ice; 1-10 nM Cy3 DNA, 10 pM-100 nM protein; RecA dsDNA control at …
[2] = molecular target: T1, HDGF (human, UniProt P51858 1-240); assay: PIFQ (Cy3 fluorescence quenching); 1 nM DNA; Hill n=0.60; unit not printed in legend; HDGF assays: 46 mM NaCl, 0.9 mM KCl, 3.3 mM Na2HPO4, 0.66 mM KH2PO4, pH 7.4; at least 1 h on ice; 1-10 nM Cy3 DNA, 10 pM-100 nM protein; RecA dsDNA control at pH 7.5; settings: protein: recombinant; label: 3' Cy3
[3] = molecular target: T2, HDGF PWWP domain (human, UniProt P51858 1-100); assay: PIFQ (Cy3 fluorescence quenching); 1 nM DNA; Hill n=1.0; unit not printed in legend; HDGF assays: 46 mM NaCl, 0.9 mM KCl, 3.3 mM Na2HPO4, 0.66 mM KH2PO4, pH 7.4; at least 1 h on ice; 1-10 nM Cy3 DNA, 10 pM-100 nM protein; RecA dsDNA control at pH 7.5; settings: protein: recombinant; label: 3' Cy3
[4] = molecular target: T1, HDGF; assay: PIFQ (Cy3 fluorescence quenching); 1 nM DNA; HDGF assays: 46 mM NaCl, 0.9 mM KCl, 3.3 mM Na2HPO4, 0.66 mM KH2PO4, pH 7.4; at least 1 h on ice; 1-10 nM Cy3 DNA, 10 pM-100 nM protein; RecA dsDNA control at pH 7.5; settings: protein: recombinant; label: 5' Cy3
[5] = molecular target: T3, HDGF S103A (human, UniProt P51858 1-240, S103A); assay: as above; settings: protein: recombinant; label: 5' Cy3
[6] = molecular target: T4, HDGF C140 domain (human, UniProt P51858 101-240); assay: as above; settings: protein: recombinant
[7] = molecular target: T2, HDGF PWWP domain; assay: PIFQ (Cy3 fluorescence quenching); 1 nM DNA; Hill fit; HDGF assays: 46 mM NaCl, 0.9 mM KCl, 3.3 mM Na2HPO4, 0.66 mM KH2PO4, pH 7.4; at least 1 h on ice; 1-10 nM Cy3 DNA, 10 pM-100 nM protein; RecA dsDNA control at pH 7.5; settings: protein: recombinant; label: 5' Cy3
[8] = molecular target: E. coli RecA (E. coli, UniProt P0A7G6 2-353); assay: PIFE (Cy3 fluorescence enhancement); 1 nM DNA; approximation model; HDGF assays: 46 mM NaCl, 0.9 mM KCl, 3.3 mM Na2HPO4, 0.66 mM KH2PO4, pH 7.4; at least 1 h on ice; 1-10 nM Cy3 DNA, 10 pM-100 nM protein; RecA dsDNA control at pH 7.5; settings: label: Cy3
[9] = molecular target: T5, HDGF PWWP domain;HDGF C140 domain (human;human, UniProt P51858;P51858 1-100;101-240, |); assay: PIFQ (Cy3 fluorescence quenching); 1 nM DNA; equal amounts premixed; Hill n=0.50; HDGF assays: 46 mM NaCl, 0.9 mM KCl, 3.3 mM Na2HPO4, 0.66 mM KH2PO4, pH 7.4; at least 1 h on ice; 1-10 nM Cy3 DNA, 10 pM-100 nM protein; RecA dsDNA control at pH 7.5; settings: protein: recombinant;recombinant; copies: 1;1; label: Cy3
[10] = molecular target: T3, HDGF S103A; assay: PIFQ (Cy3 fluorescence quenching); 1 nM DNA; Hill n=0.50; HDGF assays: 46 mM NaCl, 0.9 mM KCl, 3.3 mM Na2HPO4, 0.66 mM KH2PO4, pH 7.4; at least 1 h on ice; 1-10 nM Cy3 DNA, 10 pM-100 nM protein; RecA dsDNA control at pH 7.5; settings: protein: recombinant; label: Cy3
[11] = molecular target: T1, HDGF; assay: PIFQ (Cy3 fluorescence quenching); 1 nM DNA; Hill n=0.55; HDGF assays: 46 mM NaCl, 0.9 mM KCl, 3.3 mM Na2HPO4, 0.66 mM KH2PO4, pH 7.4; at least 1 h on ice; 1-10 nM Cy3 DNA, 10 pM-100 nM protein; RecA dsDNA control at pH 7.5; settings: protein: recombinant; label: Cy3
[12] = molecular target: T2, HDGF PWWP domain; assay: PIFQ (Cy3 fluorescence quenching); 1 nM DNA; Hill n=1.00; HDGF assays: 46 mM NaCl, 0.9 mM KCl, 3.3 mM Na2HPO4, 0.66 mM KH2PO4, pH 7.4; at least 1 h on ice; 1-10 nM Cy3 DNA, 10 pM-100 nM protein; RecA dsDNA control at pH 7.5; settings: protein: recombinant; label: Cy3
[13] = molecular target: T3, HDGF S103A; assay: PIFQ (Cy3 fluorescence quenching); 1 nM DNA; Hill n=0.67; HDGF assays: 46 mM NaCl, 0.9 mM KCl, 3.3 mM Na2HPO4, 0.66 mM KH2PO4, pH 7.4; at least 1 h on ice; 1-10 nM Cy3 DNA, 10 pM-100 nM protein; RecA dsDNA control at pH 7.5; settings: protein: recombinant; label: 5' Cy3
[14] = molecular target: T2, HDGF PWWP domain; assay: PIFQ (Cy3 fluorescence quenching); 1 nM DNA; n=1.00; HDGF assays: 46 mM NaCl, 0.9 mM KCl, 3.3 mM Na2HPO4, 0.66 mM KH2PO4, pH 7.4; at least 1 h on ice; 1-10 nM Cy3 DNA, 10 pM-100 nM protein; RecA dsDNA control at pH 7.5; settings: protein: recombinant; label: 5' Cy3
[15] = molecular target: T1, HDGF; assay: PIFQ (Cy3 fluorescence quenching); 5 nM DNA; Hill fit (approximation model 0.019 nM); HDGF assays: 46 mM NaCl, 0.9 mM KCl, 3.3 mM Na2HPO4, 0.66 mM KH2PO4, pH 7.4; at least 1 h on ice; 1-10 nM Cy3 DNA, 10 pM-100 nM protein; RecA dsDNA control at pH 7.5; settings: protein: recombinant; label: 5' Cy3
[16] = molecular target: T2, HDGF PWWP domain; assay: PIFQ (Cy3 fluorescence quenching); 10 nM DNA; approximation model; less reliable (protein depletion); HDGF assays: 46 mM NaCl, 0.9 mM KCl, 3.3 mM Na2HPO4, 0.66 mM KH2PO4, pH 7.4; at least 1 h on ice; 1-10 nM Cy3 DNA, 10 pM-100 nM protein; RecA dsDNA control at pH 7.5; settings: protein: recombinant; label: 5' Cy3
[17] = molecular target: T5, HDGF PWWP domain;HDGF C140 domain; assay: PIFQ (Cy3 fluorescence quenching); 1 nM DNA; equal amounts premixed; Hill n=0.63; HDGF assays: 46 mM NaCl, 0.9 mM KCl, 3.3 mM Na2HPO4, 0.66 mM KH2PO4, pH 7.4; at least 1 h on ice; 1-10 nM Cy3 DNA, 10 pM-100 nM protein; RecA dsDNA control at pH 7.5; settings: protein: recombinant;recombinant; copies: 1;1; label: 5' Cy3
[18] = molecular target: T4, HDGF C140 domain; assay: PIFQ (Cy3 fluorescence quenching); 1 nM DNA; up to 100 nM protein; HDGF assays: 46 mM NaCl, 0.9 mM KCl, 3.3 mM Na2HPO4, 0.66 mM KH2PO4, pH 7.4; at least 1 h on ice; 1-10 nM Cy3 DNA, 10 pM-100 nM protein; RecA dsDNA control at pH 7.5; settings: protein: recombinant; label: 5' Cy3
[19] = molecular target: T1, HDGF; assay: PIFQ (Cy3 fluorescence quenching); 10 nM DNA; Hill fit (approximation model 0.031 nM); HDGF assays: 46 mM NaCl, 0.9 mM KCl, 3.3 mM Na2HPO4, 0.66 mM KH2PO4, pH 7.4; at least 1 h on ice; 1-10 nM Cy3 DNA, 10 pM-100 nM protein; RecA dsDNA control at pH 7.5; settings: protein: recombinant; label: 5' Cy3
[20] = molecular target: T2, HDGF PWWP domain; assay: PIFQ (Cy3 fluorescence quenching); 5 nM DNA; approximation model; HDGF assays: 46 mM NaCl, 0.9 mM KCl, 3.3 mM Na2HPO4, 0.66 mM KH2PO4, pH 7.4; at least 1 h on ice; 1-10 nM Cy3 DNA, 10 pM-100 nM protein; RecA dsDNA control at pH 7.5; settings: protein: recombinant; label: 5' Cy3
[21] = molecular target: T1, HDGF; assay: PIFQ (Cy3 fluorescence quenching); 1 nM DNA; Hill fit (approximation model 0.017 nM); HDGF assays: 46 mM NaCl, 0.9 mM KCl, 3.3 mM Na2HPO4, 0.66 mM KH2PO4, pH 7.4; at least 1 h on ice; 1-10 nM Cy3 DNA, 10 pM-100 nM protein; RecA dsDNA control at pH 7.5; settings: protein: recombinant; label: 5' Cy3

T1 sequence (P51858 whole entry, the tested form may be a part): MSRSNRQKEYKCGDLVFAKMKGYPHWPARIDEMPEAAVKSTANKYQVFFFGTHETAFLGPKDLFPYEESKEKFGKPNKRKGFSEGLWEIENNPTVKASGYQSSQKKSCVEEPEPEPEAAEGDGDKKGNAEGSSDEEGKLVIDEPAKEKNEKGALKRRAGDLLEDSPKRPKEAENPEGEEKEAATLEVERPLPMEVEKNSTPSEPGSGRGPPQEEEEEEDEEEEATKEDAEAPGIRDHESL
T2 sequence (P51858 1-100): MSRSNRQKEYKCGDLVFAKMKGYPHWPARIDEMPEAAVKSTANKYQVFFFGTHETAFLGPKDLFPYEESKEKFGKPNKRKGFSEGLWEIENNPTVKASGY
T4 sequence (P51858 101-240): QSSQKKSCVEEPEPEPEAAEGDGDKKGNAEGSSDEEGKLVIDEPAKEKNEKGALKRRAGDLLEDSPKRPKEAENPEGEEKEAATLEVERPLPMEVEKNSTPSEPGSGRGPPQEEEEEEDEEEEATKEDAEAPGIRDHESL
T3 sequence (P51858 whole entry S103A, the tested form may be a part): as the sequence (P51858 whole entry, the tested form may be a part) above, with S103A counted along it
T5 sequence (P51858 1-100, chain 1 of 2): as the sequence (P51858 1-100) above
T5 sequence (P51858 101-240, chain 2 of 2): as the sequence (P51858 101-240) above
Sequence of E. coli RecA (P0A7G6 2-353): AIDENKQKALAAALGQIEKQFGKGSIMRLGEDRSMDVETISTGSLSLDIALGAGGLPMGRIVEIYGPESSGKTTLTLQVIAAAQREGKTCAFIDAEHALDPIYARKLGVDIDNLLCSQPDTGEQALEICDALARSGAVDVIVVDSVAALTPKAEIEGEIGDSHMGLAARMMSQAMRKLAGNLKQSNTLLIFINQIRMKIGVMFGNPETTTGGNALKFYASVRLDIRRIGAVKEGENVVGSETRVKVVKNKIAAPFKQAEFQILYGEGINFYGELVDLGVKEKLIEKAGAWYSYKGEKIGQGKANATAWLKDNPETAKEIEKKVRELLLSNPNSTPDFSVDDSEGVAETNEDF

## TTTTTTTTTTTTTTTTTTTTTTTTTTTTTTTTTTTTTTTT [poly(dT)40 ssDNA]
[1]
  Kd: 13.6 nM

## TTTTTTTTTTTTTTTTTTTTTTTTTTTTTTTTTTTTTTTT (double strand) [poly(T-A)40 dsDNA]
[1]
  Kd: 19 nM

B1: 15 bp SMYD1 dsDNA (3' Cy3) (dsDNA)
DNA 1: TTCAAGACCAGCCTG
DNA 2: CAGGCTGGTCTTGAA
[2]
  Kd: 0.08 ± 0.004 nM
[3]
  Kd: 1.4 ± 0.2 nM

B2: poly(T-A)15 dsDNA (dsDNA)
DNA 1: TTTTTTTTTTTTTTT
DNA 2: AAAAAAAAAAAAAAA
[4]
  binding result: no binding
[5]
  binding result: no binding
[6]; label: 5' Cy3
  binding result: no binding
[7]
  Kd: 1.6 ± 0.2 nM

## TTTTTTTTTTTTTTTTTTTTTTTTTTTTTTTTTTTTTTTT (ssDNA) [poly(dT)40 ssDNA]
[8]
  Kd: 34.5 ± 6.8 nM

B3: GC-rich dsDNA (dsDNA)
DNA 1: TCCTCGCTGCCGTCGGCCA
DNA 2: TGGCCGACGGCAGCGAGGA
[9]
  Kd: 0.45 ± 0.06 nM
[10]
  Kd: 0.34 ± 0.06 nM
[6]; label: Cy3
  binding result: no binding
[11]
  Kd: 0.25 ± 0.03 nM
[12]
  Kd: 0.97 ± 0.19 nM

B4: 15 bp SMYD1 dsDNA (5' Cy3) (dsDNA)
DNA 1: TTCAAGACCAGCCTG
DNA 2: CAGGCTGGTCTTGAA
[13]
  Kd: 0.072 ± 0.003 nM
[14]
  Kd: 0.94 ± 0.1 nM
[15]
  Kd: 0.085 ± 0.024 nM
[16]
  Kd: 1.6 ± 0.2 nM
[17]
  Kd: 0.12 ± 0.04 nM
[18]
  binding result: no binding
[19]
  Kd: 0.076 ± 0.02 nM
[20]
  Kd: ~1 nM
[21]
  Kd: 0.095 ± 0.016 nM
